# Source: patent US20240026407A1, “MODIFICATION OF SAPONINS” (GLAXOSMITHKLINE BIOLOGICALS SA, priority 2020, published 2024)
# Assays:
# Assay type in all cases: biochemical, Quillaja saponaria
# [1] = Example 10: deglucosylation of saponins in crude bark extract (50%) using WT and engineered glucosidases G1 to G5; settings: 7 h, 50% CBE, 35 degC; for % Right Peak: starting CBE 26; for % Left Peak: starting CBE 30; for % Middle Peak: starting CBE 44
# Description: Lyophilised powders from clarified cell lysate expressing glucosidases (from Example 8 WT glucosidase and engineered glucosidase polypeptides G1 to G5) and rhamnosidases (from Example 9 WT rhamnosidase and engineered rhamnosidase polypeptides R1 to R5) were dissolved in 200 mM sodium acetate aqueous solution at pH 5.8 to prepare the enzyme solutions at 4 fold the final reaction concentration as shown in Tables 19 and 20.
# Each glucosidase solution was combined with an equal volume of 200 mM sodium acetate aqueous solution at pH 5.8 and separately with an equal volume of 200 mM sodium acetate aqueous solution at pH 5.8 containing 2 mg/ml rhamnosidase R5. This is a sufficient loading of rhamnosidase to effect complete hydrolysis of the relevant rhamnose moiety within 4 hours.
# CBE was adjusted to pH of 6.0 to 6.2 with 2M sodium hydroxide and an equal volume added to the enzyme solution to prepare the reaction mix (i.e. 50% CBE concentration in reaction mix) and the concentration of glucosidase and/or rhamnosidase is shown in Tables 19 and 20. The reaction mix was heated to 35 degC for the time indicated in Tables 19 and 20, after which the reaction was quenched by addition of an equal volume of MeCN containing 2% acetic acid and shaken at room temperature for 10 mins prior to centrifugation (10 min, 4 degC) to remove particulates. Samples were analysed by UV HPLC using method of Experiment 4-4.
# The change in composition of the Left, Middle and Right peaks is shown in Tables 19 and 20. The composition changes by the action of the enzymes depending on the presence or absence of the partner enzyme. The extent of reaction is proportional to the enzyme concentration and the reaction time under these conditions. The tables show data for enzyme concentrations and the reaction times providing for equivalent extents of reaction. The improvement resulting from the mutations introduced for each variant is equal to the fold change in enzyme concentration×time (i.e. fold improvement=(enzyme concentration×time) for preceding variant÷(enzyme concentration×time) for later variant). A cumulative fold improvement over the original enzyme variant is calculated by the product of the individual fold improvements.
# [2] = Example 8: screening of glucosidase variants for deglycosylation of saponins in crude bark extract (FIOP); settings: screen temp 35, pH 6, lysate loading 20%, CBE loading 80%, 100 mM Potassium phosphate, Rham None
# Description: Libraries of genetic variants encoding mutations in the wild type Modestobacter marinus glucosidase (SEQ ID No. 262) were prepared using molecular biology techniques, enzymes were prepared linked to an N-terminally located His-tag. Single monoclonal colonies were grown in 400 ul of expression medium and protein expressed. Cell pellets were lysed in 200 ul of the relevant buffer (Table 16)
# Lysate was diluted appropriately in the relevant buffer to allow a lysate loading of the indicated % loading (1% loading corresponds to use of 2 ul original lysate in a 200 ul reaction). In some experiments a rhamnosidase was also present during the screening reaction (and also in controls, negating any impact on results).
# Crude bark extract (CBE) obtained by aqueous extraction of Quillaja saponaria and containing at least 2.80 mg/ml QS-21 (by HPLC-UV). The pH of CBE was adjusted to pH 6 by dropwise addition of 2M NaOH with stirring. The relevant concentration of the relevant glucosidase was added. The appropriate relative volume of pH 6 CBE (160 ul (for 80%) or 150 ul (for 75%)) was added to each well of the reaction plate. The reaction plate was sealed and incubated at the relevant temperature with shaking overnight for between 18 and 22 hours.
# The reaction plate was quenched by adding 200 uL of MeCN (2% AcOH, 1 mg/mL hexanophenone) to each well of the plates. The quenched reaction plate was re-sealed and incubated at 20 deg C. with shaking for 10 min. The reaction plate was then centrifuged (10 min, 4 degC).
# 200 uL was transferred from each well of the quenched plate to the corresponding wells of a fresh 96 well plate and sealed. The plate was analysed by UV HPLC with the method below:
# A negative control (a lysate not expressing test enzymes) and a positive control (expressing the parent comparator—wild type or previous variant as appropriate). Fold improvement over parent (FIOP) for the glucosidase (shorter method) is calculated as follows:
# % right peak=100*right peak area/(right peak area+left peak area)
# Average % right peak area is calculated for negative controls (per plate) and subtracted from all wells to give the increase in % right peak for each well above average negative control Average increase in % right peak is calculated for positive controls per plate
# FIOP=observed increase in % right peak divided by average positive control increase
# [3] = Experiment 4-2: screening of glucosidases for deglycosylation with purified QS-18 (1 mg/ml) at pH 6 and 30 deg C; settings: pH 6, 30 degC, 18 hrs, clarified lysate, LCMS/MS
# Summary of the method: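 Enzyme activity derived from LC-MS/MS analysis after MeCN quench. Substrate QS-18 (1 mg/ml final) was exposed overnight (18 h, 30 °C, pH 6 phosphate buffer) to clarified lysates containing candidate glucosidases.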
# [4] = Experiment 4-1: screening of glucosidases for deglycosylation with purified QS-18 (0.04 mg/ml) at pH 7.5 and room temperature; settings: pH 7.5, room temperature, 20 h, clarified E. coli lysate, QS-18 2150 to QS-21 1988 by LCMS/MS
# Summary of the method: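 Deglycosylation measured by LC-MS/MS as % conversion after 20 h room-temperature incubation of QS-18 phenyl fraction (0.04 mg/ml final) with polymyxin B/lysozyme lysates, pH 7.5 phosphate, of E. coli BL21(DE3) expressing each enzyme; MeCN quench. Positives exceeded negative control by >3 S.D.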
# [5] = Experiment 4-3: screening of glucosidases for deglycosylation with QS-18 in crude bark extract (1 in 2000 dilution) at pH 7 and 30 deg C; settings: CBE 1 in 2000 dilution, pH 7, 30 degC, 1 h; % conversion of QS-18 by LCMS/MS
# [6] = Experiment 4-4: screening of glucosidases for deglycosylation of QS-18 in crude bark extract (1 in 20 dilution) to QS-21; settings: CBE 1 in 20 dilution, pH 6, 25 degC, 18 hours; % conversion of Middle Peak by UV HPLC
# Summary of the method: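 Clarified glucosidase lysates were incubated with pH 6 crude bark extract (1 in 20) in potassium phosphate buffer pH 6 for 18 h at 25 °C with shaking, then quenched with MeCN. UV HPLC with MS/MS-supported peak identity; activity is % conversion of the extract's Middle Peak (QS-18 family) toward the QS-21 peak.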
# [7] = glucosidase 6.25 mg/ml + rhamnosidase R5 0.5 mg/ml
# [8] = glucosidase 6.25 mg/ml, no rhamnosidase
molecule,measurement,setting,value
"Variant G1: engineered glucosidase polypeptide, variant of Modestobacter marinus glucosidase SEQ ID No. 262 (protein, Seq ID No. 262 with mutation T365N) MNPASSTRTDTMTDTTARTDSRLTDALAALSLEQKVQLLTGRDFWNTWPIEEIGLRRILVSDGPSGVRGEVWDERDPSLNLPSATALASAWDPDIARRYGAAAAVEARRKGVDVVLGPTINLHRSPLGGRHFEAFSEDPVLTAELAAAYVTGVQDNGVGATPKHYVANDFETDRFTVDVRADERTLRELYLLAFEKAVTEARAWLVMSAYNGINGATATENDLLETPLNSEWGFDGVVVSDWTAVRSLESARSSQDLVMPGPVGPWGDALVEAVRTGAIDESVVDRKVLRILTLAQRVGALEGSPAIDPVWVEDGVALAREAAVEGTVLLENRDELPWDATSLRKVAVIGNNAAAARTQGGGSANVLPEYTVSPLDGVRAALPDAEVSYSLGAVVQDGLVELPLAELTNPVTGGPGLRARFLTADGAELFGEDRRKSVLVYFGGDAPIAAAATYELTARWTPTESQTVRLGFALIGAAQLYVDGELLVESDLQPSGTDLGAAFMNPLTASAEVELVAGKPVDVRLVHDLSAKEGFAAHALFLQLGTEPAEVDEDALIAEAAEAAEAADVVLVVVGTNSIVESEGYDRESLSLPGRQDDLVRAVVAANPRTVVLVNAGAPVLLPWRDDVAALLLGWFGGQEFGNAVADVLLGVAEPGGRLPTTWPAAEADVPVLSCTPVDGVVEYTEGIHIGYRAWLRSGATPAYWFGSGQGYTCVELTGVEAPSRARPGEIVTVSVEVANRGERDGKQVVQVYAEKPDSTVDRPVRWLVGSAPVRVPAGQTAQVEVAVPTRYLAHWAGGWQYEPGVYRLRVGTTAVELPLETTLEVSA",% change in Left Peak,[1]; [7],−39%
same,% change in Middle Peak,[1]; [7],−64%
same,% change in Right Peak,[1]; [7],253%
same,Cumulative Fold improvement in primary enzyme loading × time,[1]; [7],8
same,Fold improvement in primary enzyme loading × time,[1]; [7],8.0
same,% Right Peak,[1]; [7],66%
same,% Left Peak,[1]; [7],18%
same,% Middle Peak,[1]; [7],16%
same,% change in Left Peak,[1]; [8],−8%
same,% change in Middle Peak,[1]; [8],−59%
same,% change in Right Peak,[1]; [8],209%
same,Cumulative Fold improvement in primary enzyme loading × time,[1]; [8],8
same,Fold improvement in primary enzyme loading × time,[1]; [8],8.0
same,% Right Peak,[1]; [8],54%
same,% Left Peak,[1]; [8],28%
same,% Middle Peak,[1]; [8],18%
same,Cumulative FIOP (cf WT),[2]; estimate,5
same,FIOP,[2]; fold improvement over parent,5
"5 (protein, listed as Actinobacteria bacterium) MSELVENLILRLTLEEKATLTSGTDMWNAHGIDRLGIPGLKVSDGPVGVRGERWVGTTSACTPCGTALGATWNMELIEQVGVVLGEEAKSKSVDIVLAPTVNLHRNPLAGRNFECFSEDPFLTGLAATAIINGIQSAGVGACVKHFVANDSEYQRHTISSQVSERVLRELYLLPFEMVIRDTDVVAVMSGYNRLNGTYCAEHDWLLNQILKQEWGFDGLVMSDWWGTMSSASAAGGLDLEMPGPAKYLGPQLAQMVADGTLDATALDEMARRILHVSERLGLLAHSSPATPSRAAERSEDLPTHQAILRSAAEQAVVLLTNRLIEGQTVLPLDVSSLRHVAVIGPSADTAAVLGGGSAAVNPHYAVSILQGLQEALPSHVKVTHEIGVHASHSAPPIDSRCLRSAVQPDKPGLDVEYFANREFAGTPACVEHAAQPRLVWMGSEAASGVATNNLSVRVSGTFIARSTGTHTFALVTGGTGGRVLLDGESILDNYTGQESGTAFFGLGSSEILAEVYLEQGEERGIIGEFTGYEGMDVAAFLIGHREPLAADGIERAAKAAAEAEVAIVVVGLDQDSETEGEDRKTISLPGEQDALLRAVIAANPRTVVLVNAGSVVDLAATEGAAAIAQTWYLGQETGNAVAAVLTGSVDPSGRLPTTFGKKVQDWSSHLNYPGEFGEVLYGEELFMGYRGFDQQQIEPAFCFGHGLSYTSFDWSGATLSTSSLSQTELLDGAQFSLSAEVTNTGDTSGYEVLQCYVQRDQSQSGRPEQELCGFVKVHLSPGQTATVNIPLNFRSCAVWDQPSRSWLVHPGEIKFRLSSSSRDTRSTAAFQVTT",Expt 4-2 % conv,[3],16.6%
same,Expt 4-1 % conv,[4],70.8%
same,Expt 4-3 % conv,[5],1.4%
same,Expt 4-4 % conv,[6],<3%
